According to patent publication US20160200831A1 (Sanofi, published 2016):
Residue numbers refer to the chain shown, from its start. Like-named read-outs stand apart in the source and are kept apart here. Each block holds one binder with its values, some of them ahead of it.

Assays:
[1] = target: T1, cyno PAI-1 captured on immobilized human vitronectin (cynomolgus monkey; human, UniProt P04004 20-478, limits assumed); test: Biacore, cPAI-1 on vitronectin chip, two state reaction model (kd1)
T1 construct: non-covalent complex formed on the chip; also called cPAI-1/Vn

[2] = target: T2, glycosylated human PAI-1 (active form) (human, UniProt P05121 24-402, glycosylated); test: cell-based or functional assay
human PAI-1 [3] = target: T3, human PAI-1 (human, UniProt P05121 24-402); test: cell-based or functional assay
[4] = target: T4, human PAI-1 captured on immobilized human vitronectin (human, UniProt P04004 20-478); test: Biacore, hPAI-1 on vitronectin chip, 1:1 model
T4 construct: non-covalent complex formed on the chip or plate; also called PAI-1/Vn complex; Vn captured hPAI-1

[5] = target: T1, cyno PAI-1 captured on immobilized …; test: Biacore, cPAI-1 on vitronectin chip, two state reaction model (ka1)
[6] = target: T1, cyno PAI-1 captured on immobilized …; test: Biacore, cPAI-1 on vitronectin chip, two state reaction model
[7] = target: T2, glycosylated human PAI-1 (active form); test: cell-based or functional assay; remark: listed apart in the source
human PAI-1 [8] = target: T3, human PAI-1; test: cell-based or functional assay; remark: listed apart in the source
[9] = target: T2, glycosylated human PAI-1 (active form); test: SPR Biacore 2000, mAb captured by anti-Fc, single-cycle kinetics, 1:1 model
Protocol: First, the surface of a Sensor Chip CM5 (GE Healthcare, Uppsala, Sweden) was prepared using routine amine coupling for the capture of the mouse and human anti-Fc (Anti-human IgG (Fc) antibody & Anti-mouse IgG antibody kits, GE Healthcare). All monoclonal antibodies (mAbs) were diluted to 5 nM using HBS-EP running buffer. Each purified mAb was captured for three minutes on a different flow cell surface. Human PAI-1 was injected at various concentrations (2.5, 5, 10, 20 and 40 nM) with short dissociation times in between and a long dissociation time at the end (contact time: 120 seconds, short dissociation: 90 seconds; long dissociation: 1800 seconds, flow rate: 50 μl/min). The chip was regenerated by glycine-HCl, pH 1.7 buffer after each round of antibody-PAI-1 binding. Kinetics data analysis was performed using Biacore BIAevaluation software. The sensorgrams were double-referenced by subtracting the reference flow cell values and the blank buffer values. The sensorgrams were fitted by using the simulated kinetics 1:1 (Langmuir) model with local Rmax. (see FIG. 19).

[10] = target: T2, glycosylated human PAI-1 (active form); test: cell-based or functional assay; remark: listed apart in the source
human PAI-1 [11] = target: T3, human PAI-1; test: cell-based or functional assay; remark: listed apart in the source
human PAI-1 [12] = target: T3, human PAI-1; test: Biacore, hybridoma supernatant
[13] = target: T2, glycosylated human PAI-1 (active form); test: cell-based or functional assay; remark: listed apart in the source

T4 sequence (chain, as listed by the source limits assumed, chain 1 of 2): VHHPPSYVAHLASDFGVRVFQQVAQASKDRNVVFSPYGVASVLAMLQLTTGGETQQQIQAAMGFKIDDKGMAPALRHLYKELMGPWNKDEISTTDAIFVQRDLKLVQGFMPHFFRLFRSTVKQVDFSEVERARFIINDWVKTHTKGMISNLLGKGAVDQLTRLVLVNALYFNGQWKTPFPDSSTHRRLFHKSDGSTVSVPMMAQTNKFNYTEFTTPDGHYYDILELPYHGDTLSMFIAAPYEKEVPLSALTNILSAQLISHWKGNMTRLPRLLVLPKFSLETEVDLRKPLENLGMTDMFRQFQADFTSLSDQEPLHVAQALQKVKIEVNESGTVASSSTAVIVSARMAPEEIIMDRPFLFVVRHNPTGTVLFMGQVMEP
T4 sequence (P04004 20-478 limits assumed, chain 2 of 2): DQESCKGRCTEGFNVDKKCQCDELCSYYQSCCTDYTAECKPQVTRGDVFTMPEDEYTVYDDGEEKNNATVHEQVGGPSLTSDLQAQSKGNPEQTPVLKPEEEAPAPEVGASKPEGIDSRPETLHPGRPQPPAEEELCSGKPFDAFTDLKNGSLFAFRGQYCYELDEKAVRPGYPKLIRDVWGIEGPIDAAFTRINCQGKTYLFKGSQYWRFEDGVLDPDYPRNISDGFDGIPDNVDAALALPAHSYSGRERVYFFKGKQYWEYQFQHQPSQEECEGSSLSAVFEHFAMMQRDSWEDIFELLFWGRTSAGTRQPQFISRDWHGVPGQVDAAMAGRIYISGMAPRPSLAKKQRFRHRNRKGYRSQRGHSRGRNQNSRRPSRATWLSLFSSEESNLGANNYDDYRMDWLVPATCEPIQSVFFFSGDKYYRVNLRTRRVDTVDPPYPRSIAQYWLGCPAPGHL
T1 sequence (chain, as listed by the source limits assumed, chain 1 of 2): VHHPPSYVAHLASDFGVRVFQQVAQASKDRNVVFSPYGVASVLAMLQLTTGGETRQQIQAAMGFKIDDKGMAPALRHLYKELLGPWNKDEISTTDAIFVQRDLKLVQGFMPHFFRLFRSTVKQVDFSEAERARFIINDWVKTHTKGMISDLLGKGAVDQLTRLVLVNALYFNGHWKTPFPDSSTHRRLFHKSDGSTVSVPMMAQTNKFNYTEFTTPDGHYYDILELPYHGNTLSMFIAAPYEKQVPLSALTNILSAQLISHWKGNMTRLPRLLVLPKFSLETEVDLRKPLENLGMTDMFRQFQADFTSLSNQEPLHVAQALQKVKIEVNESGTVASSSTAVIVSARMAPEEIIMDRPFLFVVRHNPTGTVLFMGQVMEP
T1 sequence (P04004 20-478 limits assumed, chain 2 of 2): as the sequence (P04004 20-478 limits assumed, chain 2 of 2) above

B1: A44-hv4 (antibody, V domains shown)
VH: EMTLKESGPTLVKPTQTLSLTCSVTGDSMTQGYWNWIRKFPGKALEYMGYITYSGSTYYNPSLKGRISITRNTSKNQYYLTLSSVTTVDTATYYCARWHYGSPYYFDYWGQGTTLTVSS
VL: DIKMTQSPSSLSASVGDRVTITCKASQDINSYLSWLQQKPGKSPKTLIYRANRSVDGVPSRFSGSGSGQDYSLTISSLQPEDLGIYYCLQYDEFPPTFGGGTKLEIK
notes: humanized A44, HEK293; constant regions as for A44-hv1; also called LC1a x HC2b; variant 4
koff [1]: 0.00017 s⁻¹ | Plasminogen Activation Y50% [2]: 26% | Chromogenic Assay IC50 (human PAI-1 [3]): 0.52 nM | Kd [4]: 0.0192 nM | koff [4]: 8.8e-05 s⁻¹ | kon [4]: 4.59e+06 M⁻¹ s⁻¹ | kon [5]: 226000 M⁻¹ s⁻¹ | Kd [6]: 0.752 nM

B2: A44-hv1 (antibody, V domains shown)
VH: B1 VH with Q31N
VL: B1 VL
notes: humanized A44, HEK293; also called LC1a x HC1a; variant 1
koff [1]: 0.00827 s⁻¹ | Plasminogen Activation IC50 [2]: 3.12 nM | Plasminogen Activation Y50% [2]: 45% | Chromogenic Assay IC50 (human PAI-1 [3]): 0.49 nM | Kd [4]: 0.0526 nM | koff [4]: 0.000555 s⁻¹ | kon [4]: 1.1e+07 M⁻¹ s⁻¹ | Plasminogen Activation IC50 [7]: 2.08 nM | Plasminogen Activation Y50% [7]: 58.5% | kon [5]: 3.37e+06 M⁻¹ s⁻¹ | Kd [6]: 2.45 nM

PAI-1 activity in human plasma (uPA-PAI-1 complex ELISA), IC50abs (human PAI-1 [8]): 0.962 nM | PAI-1 activity in human plasma (uPA-PAI-1 complex ELISA), Imax (human PAI-1 [8]): 94.5% | Kd [9]: 0.0408 nM | koff [9]: 0.000269 s⁻¹ | human plasma clot lysis, IC50 [10]: 2.08 nM | human plasma clot lysis, Imax @ 100 nM [10]: 114%
B3: APGv2 (antibody, V domains shown)
VH: QVQLVQSGSELKKPGASVKVSCKASGYSFTDYNMNWVRQAPGQGLEWIGIIHPNSGTTTYNQKFKGRAVLSVDQSVSTAYLQISSLKAEDTAVYYCARSKLRFFDYWGQGTLVTVSS
VL: DIQLTQSPSSLSASVGDRVTITCKASQDIYSYLSWFQQKPGKAPKTLIYRANRLIDGVPSRFSGSGSGQDYTFTISSLQPEDIATYYCLQYDEFPFTFGQGTKLEIK
notes: humanized APG; captured by anti-human IgG (Fc); also called APG variant 2

PAI-1 activity in human plasma (uPA-PAI-1 complex ELISA), IC50abs (human PAI-1 [8]): 1.28 nM | PAI-1 activity in human plasma (uPA-PAI-1 complex ELISA), Imax (human PAI-1 [8]): 94.4% | Kd [9]: 0.038 nM | koff [9]: 0.000359 s⁻¹ | human plasma clot lysis, IC50 [10]: 2.82 nM | human plasma clot lysis, Imax @ 100 nM [10]: 116%
B4: APGv4 (antibody, V domains shown)
VH: B3 VH with S9A, L11V, V69T, S71T, V76T, L81M, Q82E, I83L, K87R, A88S
VL: B3 VL
notes: humanized APG; captured by anti-human IgG (Fc); also called APG variant 4

EC50, % neutralization of hPAI-1 (chromogenic assay) (human PAI-1 [11]): 1.08 nM | koff (human PAI-1 [12]): ≤ 0.0001 s⁻¹ | Chromogenic Assays [13]: 1.3 nM | Plasmin Generation [13]: 216 nM
B5: E21 (antibody, mouse IgG2b, V domains shown)
VH: EVQLQQSGAELVRSGASVKLSCTASGFNIKDYYMHWVKQRPEQGLEWIGWIDPENGDTEYDPKFQAKATMTADTSSNTAYLQLSSLTSEDTAVYYCMYGNYPYYFDYWGQGTTLTVSS
VL: DIQMTQTTSSLSASLGDRVTISCRASQDISNYLNWYQQKPDGTVKLLIYYTSRLHSGVPSRFSGSGSGTDYSLTISNLEQEDIATYFCQQGNTLPWTFGGGTKLEIK
notes: mouse IgG2b; also called mE21; E21 (IgG2b)
